Laboratory results published in US10081794B2, “System and method for electrospun biodegradable scaffold for bone repair” (New Jersey Institute of Technology, priority 2011, dated 2018).

Test system: hMSCs
Assay: Serum starvation study of PDGF-BB bioactivity (cell proliferation)
Type: cell-based, human
Details: Invitrogen versus Prospec Bio
Protocol: At the initiation of this study, arbitrarily called “Day −2”, a vial of hMSCs was thawed, resuspended in 10% FBS DMEM, and seeded into 96 well TCPS plates at a seeding density of 12,500 cells/cm2 or 4000 cells/well. On “Day −1”, 24 hours following the initial cell seeding, the media in the wells was changed with DMEM prepared with various concentrations of FBS (Table 6). On Day 0, the media was supplemented with various concentrations of PDGF-BB (Prospec Bio or Invitrogen). PDGF-BB supplementation was done either once at Day 0, or continually for every 48-72 hours until Day 7.
At Days 4 and 7 following growth factor induction, cells were harvested for cell proliferation assay. Briefly, cell lysates (n=3 per media and PDGF-BB condition) were prepared by lysing cells in 0.1% Triton X-100. The PicoGreen reagent fluorescently labels double stranded DNA which was correlated to cell number using a standard curve. The PicoGreen reagent was added to the cell lysates and the fluorescence was detected with a plate reader at 485 nm excitation/528 nm emission.

B1: PDGF-BB from Invitrogen: Recombinant human PDGF-BB purchased from Invitrogen, used for subsequent studies (protein, UniProt P01127 82-190, looked up)
Platelet-derived growth …: SLGSLTIAEPAMIAECKTRTEVFEISRRLIDRTNANFLVWPPCVEVQRCSGCCNNRNVQCRPTQVQLRPVQVRKIEIVRKKPIFKKATVTLEDHLACKCETVAAARPVT
B1 was tested, and the “bioactivity of PDGF-BB (cell proliferation studies)” value was “more bioactive”.
